In PMC7791067, “PLPP/CIN-mediated NF2-serine 10 dephosphorylation regulates F-actin stability and Mdm2 degradation in an activity-dependent manner” (Cell Death & Disease, 2021):

Target: T1, full-length recombinant human NF2, phosphorylated by PKAc (human, UniProt P35240 1-595, phosphoserine at S10 and S518 (phosphorylated by PKAc in vitro))
T1 sequence (looked up): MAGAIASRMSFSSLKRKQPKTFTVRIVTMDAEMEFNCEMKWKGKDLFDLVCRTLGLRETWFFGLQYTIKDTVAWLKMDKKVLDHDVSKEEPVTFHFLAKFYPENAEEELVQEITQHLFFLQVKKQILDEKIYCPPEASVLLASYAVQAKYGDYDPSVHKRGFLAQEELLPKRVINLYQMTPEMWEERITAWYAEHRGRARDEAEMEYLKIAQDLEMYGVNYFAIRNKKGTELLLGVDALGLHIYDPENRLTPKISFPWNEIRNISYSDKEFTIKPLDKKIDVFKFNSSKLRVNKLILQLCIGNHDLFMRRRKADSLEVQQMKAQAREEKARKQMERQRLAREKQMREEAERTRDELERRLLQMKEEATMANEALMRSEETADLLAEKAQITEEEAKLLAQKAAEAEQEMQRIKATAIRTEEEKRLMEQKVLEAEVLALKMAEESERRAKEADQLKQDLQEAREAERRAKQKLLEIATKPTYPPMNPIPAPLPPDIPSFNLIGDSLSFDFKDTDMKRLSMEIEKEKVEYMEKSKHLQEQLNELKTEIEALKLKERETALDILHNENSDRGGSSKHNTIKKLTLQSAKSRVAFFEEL
Assay: cell-based or functional assay

B1: recombinant human PLPP/CIN (enzyme, UniProt Q96GD0 1-296, looked up)
chain: MARCERLRGAALRDVLGRAQGVLFDCDGVLWNGERAVPGAPELLERLARAGKAALFVSNNSRRARPELALRFARLGFGGLRAEQLFSSALCAARLLRQRLPGPPDAPGAVFVLGGEGLRAELRAAGLRLAGDPSAGDGAAPRVRAVLVGYDEHFSFAKLREACAHLRDPECLLVATDRDPWHPLSDGSRTPGTGSLAAAVETASGRQALVVGKPSPYMFECITENFSIDPARTLMVGDRLETDILFGHRCGMTTVLTLTGVSRLEEAQAYLAAGQHDLVPHYYVESIADLTEGLED
NF2-S10 phosphorylation (western blot) in the in vitro phosphatase assay with recombinant proteins, after PKAc: ~0.63 fold of vehicle level
